Experimental data: paper PMC7160132

Test system: XPO5-His6 (Exportin-5) (Homo sapiens)
Test: EMSA
Conditions: no RanGTP, 20 mM HEPES pH 7.3, 150 mM K acetate, 2 mM Mg acetate, 0.05% NP-40, 7 mM 2-mercaptoethanol, 1.5 ug/mL poly dIdC, 0.2% BSA, 25 C 45 min, then 0.3 ug heparin …

## pri-mir-15b
Single shifted complex
  Kd: 9.57 nM

## pri-mir-19a
Two complexes with increasing XPO5
  Kd: 14.6 nM

## vtRNA1-1
1 nM RNA, super-shift at high XPO5
  Kd: 36.3 nM
